Target: TetR(B) (UniProt P04483 1-207)
Assay: cytometric bead binding assay

TetR(B), sequence (P04483 whole entry): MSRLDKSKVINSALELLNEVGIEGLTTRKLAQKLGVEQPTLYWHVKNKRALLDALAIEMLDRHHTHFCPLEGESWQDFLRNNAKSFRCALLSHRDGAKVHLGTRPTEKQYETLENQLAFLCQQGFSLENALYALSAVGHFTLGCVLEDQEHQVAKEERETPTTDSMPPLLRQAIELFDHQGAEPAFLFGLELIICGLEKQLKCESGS

B1: 5-1.2m2 (structured_RNA)
RNA: GGAUCCAGGCAGUGUAAGGUCGAUACGGACGGAAUGUGAUGGCCUGGAUCCAAA
binding result: no binding

Reference: article PMC3351163
